Assay results as given in article PMC6588349, “Conformational dynamics between transmembrane domains and allosteric modulation of a metabotropic glutamate receptor” (eLife, 2019).

B1: SNAP-mGluR3-TMD (domain or fragment, rat, UniProt P31422 567-879, looked up)
chain: EDYIKWEDAWAIGPVTIACLGFLCTCIVITVFIKHNNTPLVKASGRELCYILLFGVSLSYCMTFFFIAKPSPVICALRRLGLGTSFAICYSALLTKTNCIARIFDGVKNGAQRPKFISPSSQVFICLGLILVQIVMVSVWLILETPGTRRYTLPEKRETVILKCNVKDSSMLISLTYDVVLVILCTVYAFKTRKCPENFNEAKFIGFTMYTTCIIWLAFLPIFYVTSSDYRVQTTTMCISVSLSGFVVLGCLFAPKVHIVLFQPQKNVVTHRLHLNRFSVSGTATTYSQSSASTYVPTVCNGREVLDSTTSSL
modifications: SNAP tag labelled with BG-LD555
notes: mGluR3, rat; LBD and CRD deleted; following the SNAP tag the receptor starts at E567; Made by modifying the full-length SNAP-tagged cDNA of Doumazane et al., 2011; source: HEK 293T, transfected, surface-labelled, in detergent lysate; not shown: HA, N-terminal, kept; SNAP, N-terminal, kept
B2: SNAP-mGluR1-TMD (domain or fragment, rat, UniProt P23385 583-1199, looked up)
chain: VRYLEWSDIESIIAIAFSCLGILVTLFVTLIFVLYRDTPVVKSSSRELCYIILAGIFLGYVCPFTLIAKPTTTSCYLQRLLVGLSSAMCYSALVTKTNRIARILAGSKKKICTRKPRFMSAWAQVIIASILISVQLTLVVTLIIMEPPMPILSYPSIKEVYLICNTSNLGVVAPVGYNGLLIMSCTYYAFKTRNVPANFNEAKYIAFTMYTTCIIWLAFVPIYFGSNYKIITTCFAVSLSVTVALGCMFTPKMYIIIAKPERNVRSAFTTSDVVRMHVGDGKLPCRSNTFLNIFRRKKPGAGNANSNGKSVSWSEPGGRQAPKGQHVWQRLSVHVKTNETACNQTAVIKPLTKSYQGSGKSLTFSDASTKTLYNVEEEDNTPSAHFSPPSSPSMVVHRRGPPVATTPPLPPHLTAEETPLFLADSVIPKGLPPPLPQQQPQQPPPQQPPQQPKSLMDQLQGVVTNFGSGIPDFHAVLAGPGTPGNSLRSLYPPPPPPQHLQMLPLHLSTFQEESISPPGEDIDDDSERFKLLQEFVYEREGNTEEDELEEEEDLPTASKLTPEDSPALTPPSPFRDSVASGSSVPSSPVSESVLCTPPNVTYASVILRDYKQSSSTL
modifications: SNAP tag labelled with BG-LD555
notes: LBD and CRD deleted; following the SNAP tag the receptor starts at V583; Made by modifying the full-length SNAP-tagged cDNA of Doumazane et al., 2011; source: HEK 293T, transfected, surface-labelled, in detergent lysate; not shown: HA, N-terminal, kept; SNAP, N-terminal, kept
B3: SNAP-tagged full-length mGluR2 (HA-SNAP-mGluR2) (receptor, rat, UniProt P31421 19-872, looked up)
chain: EGPAKKVLTLEGDLVLGGLFPVHQKGGPAEECGPVNEHRGIQRLEAMLFALDRINRDPHLLPGVRLGAHILDSCSKDTHALEQALDFVRASLSRGADGSRHICPDGSYATHSDAPTAVTGVIGGSYSDVSIQVANLLRLFQIPQISYASTSAKLSDKSRYDYFARTVPPDFFQAKAMAEILRFFNWTYVSTVASEGDYGETGIEAFELEARARNICVATSEKVGRAMSRAAFEGVVRALLQKPSARVAVLFTRSEDARELLAATQRLNASFTWVASDGWGALESVVAGSERAAEGAITIELASYPISDFASYFQSLDPWNNSRNPWFREFWEERFHCSFRQRDCAAHSLRAVPFEQESKIMFVVNAVYAMAHALHNMHRALCPNTTHLCDAMRPVNGRRLYKDFVLNVKFDAPFRPADTDDEVRFDRFGDGIGRYNIFTYLRAGSGRYRYQKVGYWAEGLTLDTSFIPWASPSAGPLPASRCSEPCLQNEVKSVQPGEVCCWLCIPCQPYEYRLDEFTCADCGLGYWPNASLTGCFELPQEYIRWGDAWAVGPVTIACLGALATLFVLGVFVRHNATPVVKASGRELCYILLGGVFLCYCMTFVFIAKPSTAVCTLRRLGLGTAFSVCYSALLTKTNRIARIFGGAREGAQRPRFISPASQVAICLALISGQLLIVAAWLVVEAPGTGKETAPERREVVTLRCNHRDASMLGSLAYNVLLIALCTLYAFKTRKCPENFNEAKFIGFTMYTTCIIWLAFLPIFYVTSSDYRVQTTTMCVSVSLSGSVVLGCLFAPKLHIILFQPQKNVVSHRAPTSRFGSAAPRASANLGQGSGSQFVPTVCNGREVVDSTTSSL
modifications: SNAP tag labelled with BG-LD555 (SiMPull); SNAP tag labelled with donor and acceptor fluorophores (inter-LBD FRET)
notes: metabotropic glutamate receptor 2 (mGluR2), rat, full-length, behind N-terminal HA and SNAP tags; construct of Doumazane et al., 2011; also called mGluR2-WT; WT-SNAP-mGluR2; source: HEK 293T, transfected; surface-labelled, in detergent lysate (SiMPull); on living cells (FRET); not shown: HA, N-terminal, kept; SNAP, N-terminal, kept
B4: SNAP-mGluR2-TMD (HA-SNAP-tagged isolated transmembrane domain of mGluR2) (domain or fragment, rat, UniProt P31421 558-872, looked up)
chain: QEYIRWGDAWAVGPVTIACLGALATLFVLGVFVRHNATPVVKASGRELCYILLGGVFLCYCMTFVFIAKPSTAVCTLRRLGLGTAFSVCYSALLTKTNRIARIFGGAREGAQRPRFISPASQVAICLALISGQLLIVAAWLVVEAPGTGKETAPERREVVTLRCNHRDASMLGSLAYNVLLIALCTLYAFKTRKCPENFNEAKFIGFTMYTTCIIWLAFLPIFYVTSSDYRVQTTTMCVSVSLSGSVVLGCLFAPKLHIILFQPQKNVVSHRAPTSRFGSAAPRASANLGQGSGSQFVPTVCNGREVVDSTTSSL
modifications: SNAP tag labelled with BG-LD555 (SiMPull); with BG-LD655 as acceptor or with a mixture of BG-LD555 and BG-LD655 (FRET)
notes: mGluR2, rat; LBD and CRD deleted; following the SNAP tag the receptor starts at Q558; Made by modifying the full-length SNAP-tagged cDNA of Doumazane et al., 2011; also called HA-SNAP-mGluR2-TMD; isolated mGluR2 TMD; source: HEK 293T, transfected; surface-labelled, in detergent lysate (SiMPull); on living cells (FRET); not shown: HA, N-terminal, kept; SNAP, N-terminal, kept
B5: SNAP-mGluR5-TMD (domain or fragment, human, UniProt P41594 570-1212, looked up)
chain: VQYLRWGDPEPIAAVVFACLGLLATLFVTVVFIIYRDTPVVKSSSRELCYIILAGICLGYLCTFCLIAKPKQIYCYLQRIGIGLSPAMSYSALVTKTNRIARILAGSKKKICTKKPRFMSACAQLVIAFILICIQLGIIVALFIMEPPDIMHDYPSIREVYLICNTTNLGVVTPLGYNGLLILSCTFYAFKTRNVPANFNEAKYIAFTMYTTCIIWLAFVPIYFGSNYKIITMCFSVSLSATVALGCMFVPKVYIILAKPERNVRSAFTTSTVVRMHVGDGKSSSAASRSSSLVNLWKRRGSSGETLRYKDRRLAQHKSEIECFTPKGSMGNGGRATMSSSNGKSVTWAQNEKSSRGQHLWQRLSIHINKKENPNQTAVIKPFPKSTESRGLGAGAGAGGSAGGVGATGGAGCAGAGPGGPESPDAGPKALYDVAEAEEHFPAPARPRSPSPISTLSHRAGSASRTDDDVPSLHSEPVARSSSSQGSLMEQISSVVTRFTANISELNSMMLSTAAPSPGVGAPLCSSYLIPKEIQLPTTMTTFAEIQPLPAIEVTGGAQPAAGAQAAGDAARESPAAGPEAAAAKPDLEELVALTPPSPFRDSVDSGSTTPNSPVSESALCIPSSPKYDTLIIRDYTQSSSSL
modifications: SNAP tag labelled with BG-LD555 (SiMPull); with donor and acceptor fluorophores (FRET)
notes: mGluR5, human; LBD and CRD deleted; following the SNAP tag the receptor starts at V570; Made by modifying the full-length SNAP-tagged cDNA of Doumazane et al., 2011; source: HEK 293T, transfected; surface-labelled, in detergent lysate (SiMPull); on living cells (FRET); not shown: HA, N-terminal, kept; SNAP, N-terminal, kept

Biological target: the molecule itself
Assay: single-molecule pulldown (SiMPull) with subunit counting by photobleaching steps; surface receptors labelled with BG-LD555 on HEK 293T cells, lysed in 1.2% IGEPAL, diluted in 0.1% IGEPAL, immobilised by biotinylated anti-HA antibody on a PEG-passivated coverslip, TIRF imaging; SNAP labelling efficiency ~80%; background two-step bleaching ~5-10%

| Protein | percent of spots bleaching in two steps | stoichiometry N |
| --- | --- | --- |
| B1 | ~30% | 2 |
| B2 | ~30% | 2 |
| B3 | ~60% | 2 |
| B4 | ~45% | 2 |
| B5 | ~30% | 2 |
